Experimental findings from patent publication US20110065633A1, “ESTER-BASED PEPTIDE PRODRUGS” (INDIANA UNIVERSITY RESEARCH AND TECHNOLOGY CORPORATION, priority 2008, published 2011) are described below.

Experiment in all cases: cell-based or functional assay
Experiment [1] deals with T1, GLP-1 receptor (Homo sapiens, UniProt P43220).
Experiment [2] addresses glucagon receptor (UniProt P47871).
The target of experiment [3] is T1, GLP-1 receptor. This is another data set of the same source.
The target in experiment [4] is glucagon receptor (UniProt P47871). The source holds these as a separate data set.
Sequence of glucagon receptor (UniProt P47871) (P47871 26-477 limits assumed): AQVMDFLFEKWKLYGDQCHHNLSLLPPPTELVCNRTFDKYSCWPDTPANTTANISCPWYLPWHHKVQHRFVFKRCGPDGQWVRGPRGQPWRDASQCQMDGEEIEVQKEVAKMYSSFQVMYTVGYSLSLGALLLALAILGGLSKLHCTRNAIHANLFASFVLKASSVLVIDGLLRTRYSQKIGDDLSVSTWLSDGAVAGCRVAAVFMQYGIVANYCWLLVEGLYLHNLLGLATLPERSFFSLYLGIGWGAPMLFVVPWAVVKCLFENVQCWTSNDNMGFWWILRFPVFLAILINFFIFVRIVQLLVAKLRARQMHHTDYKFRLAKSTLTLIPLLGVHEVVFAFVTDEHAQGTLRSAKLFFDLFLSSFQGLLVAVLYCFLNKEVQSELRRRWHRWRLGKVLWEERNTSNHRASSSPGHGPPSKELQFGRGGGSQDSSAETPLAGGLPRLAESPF
Experiment [5] concerns the target glucagon receptor (UniProt P47871 26-477).
The target of experiment [6] is T2, GLP-1 receptor (UniProt P43220 24-463, limits assumed).
The target of experiment [7] is T2, GLP-1 receptor. This is another data set of the same source.

Like-named read-outs stand apart in the source and are kept apart here. Bridges are numbered along the chain shown (N, C = ends). Where no end group is shown, it is not given here. [ ]: non-standard residue; d: D form. PhLac = O=C(O)[C@@H](O)Cc1ccccc1

Sequence of glucagon receptor (UniProt P47871 26-477) (P47871 26-477 limits assumed): as above
T1 sequence (P43220 24-463 limits assumed): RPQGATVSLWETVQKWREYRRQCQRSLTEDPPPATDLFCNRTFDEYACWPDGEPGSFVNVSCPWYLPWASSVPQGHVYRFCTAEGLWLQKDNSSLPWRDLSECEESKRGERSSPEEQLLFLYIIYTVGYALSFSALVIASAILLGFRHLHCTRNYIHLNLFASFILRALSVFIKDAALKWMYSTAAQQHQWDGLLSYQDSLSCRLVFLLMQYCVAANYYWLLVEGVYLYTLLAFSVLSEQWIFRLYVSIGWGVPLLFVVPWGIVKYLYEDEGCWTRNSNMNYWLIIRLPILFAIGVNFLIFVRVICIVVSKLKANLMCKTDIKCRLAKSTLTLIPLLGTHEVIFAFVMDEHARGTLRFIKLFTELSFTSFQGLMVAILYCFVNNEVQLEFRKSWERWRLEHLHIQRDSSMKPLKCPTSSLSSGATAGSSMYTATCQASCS

Take “Glucagon (6-CEX) analog D9, K12E16(Lactam) (peptide)”: the GLP-1 EC50 in the experiment with GLP-1 receptor [1] is 18 nM; with GLP-1 receptor [3], 119 nM. Further, the Glucagon IC50 in the experiment with glucagon receptor [2] was determined as 828 nM. This molecule also gave a Glu IC50 in the experiment with glucagon receptor [4] of 828 nM.

B1: [PLA6, D9, E16K20(lactam), D28]G(6-29) (peptide)
peptide: [PhLac]TSDYSKYLDERRAKDFVQWLMDT-NH2
modifications: lactam 11-15
Take B1: the “Glucagon IC50” value with glucagon receptor [5] was in the range of 10 to 30 nM. Further, in the experiment with GLP-1 receptor [6], the “GLP-1 EC50” value was 4 nM.

B2: [PLA6, D9, E16, E24K28(lactam), D28]G(6-29) (peptide)
peptide: [PhLac]TSDYSKYLDERRAQDFVEWLMKT-NH2
modifications: lactam 19-23; N-terminus assumed
SMILES: CSCC[C@@H]1NC(=O)[C@H](CC(C)C)NC(=O)[C@H](Cc2c[nH]c3ccccc23)NC(=O)[C@@H](NC(=O)[C@@H](NC(=O)[C@H](Cc2ccccc2)NC(=O)[C@H](CC(=O)O)NC(=O)[C@H](CCC(N)=O)NC(=O)[C@H](C)NC(=O)[C@H](CCCNC(=N)N)NC(=O)[C@H](CCCNC(=N)N)NC(=O)[C@H](CCC(=O)O)NC(=O)[C@H](CC(=O)O)NC(=O)[C@H](CC(C)C)NC(=O)[C@H](Cc2ccc(O)cc2)NC(=O)[C@H](CCCCN)NC(=O)[C@H](CO)NC(=O)[C@H](Cc2ccc(O)cc2)NC(=O)[C@H](CC(=O)O)NC(=O)[C@H](CO)NC(=O)[C@@H](NC(=O)[C@@H](O)Cc2ccccc2)[C@@H](C)O)C(C)C)CCC(=O)NCCCC[C@@H](C(=O)N[C@H](C(N)=O)[C@@H](C)O)NC1=O
B2: the “GLP-1 EC50” value with GLP-1 receptor [7] stood at 289 nM. The “Glucagon IC50” value with glucagon receptor [5] turned out to be 22 nM.

B3: ANK2 (Bayer peptide) (peptide)
peptide: HSQGTFTSDYARYLDARRAREFIKWLVRGRG
B3: the “GLP-1 EC50” value in the experiment with GLP-1 receptor [7] was 0.28 nM.

B4: [E9, E16K20(lactam), D28]G(4-29) (peptide)
peptide: GTFTSEYSKYLDERRAKDFVQWLMDT-NH2
modifications: lactam 13-17; N-terminus assumed
SMILES: CSCC[C@H](NC(=O)[C@H](CC(C)C)NC(=O)[C@H](Cc1c[nH]c2ccccc12)NC(=O)[C@H](CCC(N)=O)NC(=O)[C@@H](NC(=O)[C@H](Cc1ccccc1)NC(=O)[C@H](CC(=O)O)NC(=O)[C@@H]1CCCCNC(=O)CC[C@H](NC(=O)[C@H](CC(=O)O)NC(=O)[C@H](CC(C)C)NC(=O)[C@H](Cc2ccc(O)cc2)NC(=O)[C@H](CCCCN)NC(=O)[C@H](CO)NC(=O)[C@H](Cc2ccc(O)cc2)NC(=O)[C@H](CCC(=O)O)NC(=O)[C@H](CO)NC(=O)[C@@H](NC(=O)[C@H](Cc2ccccc2)NC(=O)[C@@H](NC(=O)CN)[C@@H](C)O)[C@@H](C)O)C(=O)N[C@@H](CCCNC(=N)N)C(=O)N[C@@H](CCCNC(=N)N)C(=O)N[C@@H](C)C(=O)N1)C(C)C)C(=O)N[C@@H](CC(=O)O)C(=O)N[C@H](C(N)=O)[C@@H](C)O
On to B4, for which the “GLP-1 EC50” value with GLP-1 receptor [7] worked out at 151 nM. In the experiment with glucagon receptor [5], the “Glucagon IC50” value was 10 to 30 nM.

B5: PLA 6, D9, D28 (peptide)
peptide: FTSDYSKYLDSRRAQDFVQWLMDT
modifications: residue 1 (position 6) is phenyl lactic acid (PLA), written here as F
For the molecule B5, the “GLP-1 EC50” value with GLP-1 receptor [6] was around 700 nM.
